Drawing on the Human Domainome abundance scans (Beltran et al. 2025), this text covers abundance fitness for 37 variants.

The labels stand for the following.
B1: Far upstream element-binding protein 1, residues 184 to 257; numbered along this chain, Q96AE4 (parent)
chain: GNAVQEIMIPASKAGLVIGKGGETIKQLQERAGVKMVMIQDGPQNTGADKPLRITGDPYKVQQAKEMVLELIRD

± gives the uncertainty stated by the source.

In the data set the parent is B1. Put plainly: abundance fitness (aPCA) (normalised: wild type 0, dead -1); higher = more abundant; growth selection in yeast, the domain comes from the species named. Conditions: Homo sapiens.
For the variant GNAVQEIMIPASEAGLVIGKGGETIKQLQERAGVKMVMIQDGPQNTGADKPLRITGDPYKVQQAKEMVLELIRD, the abundance fitness is -0.139 ± 0.035. The same measure for GNAVQEIMIPASPAGLVIGKGGETIKQLQERAGVKMVMIQDGPQNTGADKPLRITGDPYKVQQAKEMVLELIRD: -0.659 ± 0.046; for GNAVQEIMIPASIAGLVIGKGGETIKQLQERAGVKMVMIQDGPQNTGADKPLRITGDPYKVQQAKEMVLELIRD: -0.015 ± 0.047. To GNAVQEIMIPASWAGLVIGKGGETIKQLQERAGVKMVMIQDGPQNTGADKPLRITGDPYKVQQAKEMVLELIRD belongs -0.3 ± 0.037; to GNAVQEIMIPASTAGLVIGKGGETIKQLQERAGVKMVMIQDGPQNTGADKPLRITGDPYKVQQAKEMVLELIRD, -0.218 ± 0.036; to GNAVQEIMIPASGAGLVIGKGGETIKQLQERAGVKMVMIQDGPQNTGADKPLRITGDPYKVQQAKEMVLELIRD, -0.231 ± 0.029. To GNAVQEIMIPASYAGLVIGKGGETIKQLQERAGVKMVMIQDGPQNTGADKPLRITGDPYKVQQAKEMVLELIRD belongs -0.091 ± 0.056; to GNAVQEIMIPASLAGLVIGKGGETIKQLQERAGVKMVMIQDGPQNTGADKPLRITGDPYKVQQAKEMVLELIRD, -0.114 ± 0.03. GNAVQEIMIPASAAGLVIGKGGETIKQLQERAGVKMVMIQDGPQNTGADKPLRITGDPYKVQQAKEMVLELIRD: the abundance fitness is -0.094 ± 0.032. The same measure for GNAVQEIMIPASSAGLVIGKGGETIKQLQERAGVKMVMIQDGPQNTGADKPLRITGDPYKVQQAKEMVLELIRD: -0.078 ± 0.031. To GNAVQEIMIPASVAGLVIGKGGETIKQLQERAGVKMVMIQDGPQNTGADKPLRITGDPYKVQQAKEMVLELIRD belongs -0.091 ± 0.031. To GNAVQEIMIPASQAGLVIGKGGETIKQLQERAGVKMVMIQDGPQNTGADKPLRITGDPYKVQQAKEMVLELIRD belongs -0.035 ± 0.04; to GNAVQEIMIPASCAGLVIGKGGETIKQLQERAGVKMVMIQDGPQNTGADKPLRITGDPYKVQQAKEMVLELIRD, -0.008 ± 0.042; to GNAVQEIMIPASFAGLVIGKGGETIKQLQERAGVKMVMIQDGPQNTGADKPLRITGDPYKVQQAKEMVLELIRD, -0.182 ± 0.048.

Regarding GNAVQEIMIPAWKAGLVIGKGGETIKQLQERAGVKMVMIQDGPQNTGADKPLRITGDPYKVQQAKEMVLELIRD, the abundance fitness is -0.123 ± 0.034. The same measure for GNAVQEIMIPAGKAGLVIGKGGETIKQLQERAGVKMVMIQDGPQNTGADKPLRITGDPYKVQQAKEMVLELIRD: 0.002 ± 0.027.

On to GNAVQEIMIPAEKAGLVIGKGGETIKQLQERAGVKMVMIQDGPQNTGADKPLRITGDPYKVQQAKEMVLELIRD, for which the abundance fitness is -0.016 ± 0.034. Consider GNAVQEIMIPATKAGLVIGKGGETIKQLQERAGVKMVMIQDGPQNTGADKPLRITGDPYKVQQAKEMVLELIRD, for which the abundance fitness stood at 0.001 ± 0.036.

For the variant GNAVQEIMIPAVKAGLVIGKGGETIKQLQERAGVKMVMIQDGPQNTGADKPLRITGDPYKVQQAKEMVLELIRD, the abundance fitness was -0.059 ± 0.033. The same measure for GNAVQEIMIPAHKAGLVIGKGGETIKQLQERAGVKMVMIQDGPQNTGADKPLRITGDPYKVQQAKEMVLELIRD: -0.018 ± 0.054; for GNAVQEIMIPALKAGLVIGKGGETIKQLQERAGVKMVMIQDGPQNTGADKPLRITGDPYKVQQAKEMVLELIRD: -0.112 ± 0.031; for GNAVQEIMIPAKKAGLVIGKGGETIKQLQERAGVKMVMIQDGPQNTGADKPLRITGDPYKVQQAKEMVLELIRD: 0.011 ± 0.039.

On to GNAVQEIMIPAQKAGLVIGKGGETIKQLQERAGVKMVMIQDGPQNTGADKPLRITGDPYKVQQAKEMVLELIRD, for which the abundance fitness is -0.077 ± 0.04.

On to GNAVQEIMIPAFKAGLVIGKGGETIKQLQERAGVKMVMIQDGPQNTGADKPLRITGDPYKVQQAKEMVLELIRD, for which the abundance fitness was -0.207 ± 0.062. To GNAVQEIMIPAIKAGLVIGKGGETIKQLQERAGVKMVMIQDGPQNTGADKPLRITGDPYKVQQAKEMVLELIRD belongs -0.032 ± 0.052; to GNAVQEIMIPANKAGLVIGKGGETIKQLQERAGVKMVMIQDGPQNTGADKPLRITGDPYKVQQAKEMVLELIRD, 0 ± 0.045. To GNAVQEIMIPAYKAGLVIGKGGETIKQLQERAGVKMVMIQDGPQNTGADKPLRITGDPYKVQQAKEMVLELIRD belongs -0.13 ± 0.049; to GNAVQEIMIPARKAGLVIGKGGETIKQLQERAGVKMVMIQDGPQNTGADKPLRITGDPYKVQQAKEMVLELIRD, -0.025 ± 0.026.

With GNAVQEIMIPAMKAGLVIGKGGETIKQLQERAGVKMVMIQDGPQNTGADKPLRITGDPYKVQQAKEMVLELIRD, the abundance fitness was -0.071 ± 0.04. The same measure for GNAVQEIMIPACKAGLVIGKGGETIKQLQERAGVKMVMIQDGPQNTGADKPLRITGDPYKVQQAKEMVLELIRD: -0.133 ± 0.044.

Regarding GNAVQEIMIPAAKAGLVIGKGGETIKQLQERAGVKMVMIQDGPQNTGADKPLRITGDPYKVQQAKEMVLELIRD, the abundance fitness is 0.012 ± 0.033.

For the variant GNAVQEIMIPAPKAGLVIGKGGETIKQLQERAGVKMVMIQDGPQNTGADKPLRITGDPYKVQQAKEMVLELIRD, the abundance fitness is -0.008 ± 0.038. The same measure for GNAVQEIMIPADKAGLVIGKGGETIKQLQERAGVKMVMIQDGPQNTGADKPLRITGDPYKVQQAKEMVLELIRD: 0.004 ± 0.043.

As for GNAVQEIMIPASKDGLVIGKGGETIKQLQERAGVKMVMIQDGPQNTGADKPLRITGDPYKVQQAKEMVLELIRD, the abundance fitness was -0.109 ± 0.05.

With GNAVQEIMIPASKFGLVIGKGGETIKQLQERAGVKMVMIQDGPQNTGADKPLRITGDPYKVQQAKEMVLELIRD, the abundance fitness is -0.022 ± 0.051.

Regarding GNAVQEIMIPASKEGLVIGKGGETIKQLQERAGVKMVMIQDGPQNTGADKPLRITGDPYKVQQAKEMVLELIRD, the abundance fitness was -0.014 ± 0.041. The same measure for GNAVQEIMIPASKCGLVIGKGGETIKQLQERAGVKMVMIQDGPQNTGADKPLRITGDPYKVQQAKEMVLELIRD: 0.031 ± 0.044.
